± gives the standard deviation of the averaged measurements.

In one data set the test system is hTERT-HMEC. Briefly: percentage of EdU-negative (G0-arrested) nuclei per well, 72 h; higher = more G0 arrest. The settings on record: reference: sequence is the full UniProt precursor, the tested protein was the secreted form or ectodomain.
For another data set, the system named is MCF7. The data set is described as above. The settings on record: reference: sequence is the full UniProt precursor, the tested protein was the secreted form or ectodomain.
Setting [1] is: protein concentration 0.0225 µM.
The mark [2] stands for this setting: protein concentration 0.01325 µM.
The mark [3] stands for this setting: protein concentration 0.1325 µM.
The mark [4] stands for this setting: protein concentration 0.0155 µM.
The mark [5] stands for this setting: protein concentration 0.01025 µM.
Where [6] appears, read: protein concentration 0.1025 µM.
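Further: secreted proteins added to cultured cells, EdU pulse at the end, nuclei found by Hoechst imaging, EdU status from nuclear versus surrounding ring intensity ratio, PBS as neutral control.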

With “MTTQLRVVHLLPLLLACFVQTSPKQEKMKMDCHKDEKGTIYDYEAIALNKNEYVSFKQYVGKHILFVNVATYCGLTAQYPELNALQEELKPYGLVVLGFPCNQFGKQEPGDNKEILPGLKYVRPGGGFVPSFQLFEKGDVNGEKEQKVFSFLKHSCPHPSEILGTFKSISWDPVKVHDIRWNFEKFLVGPDGIPVMRWSHRATVSSVKTDILAYLKQFKTK”, the “percentage of EdU-negative” value in the data set with hTERT-HMEC (setting [1]) came out at 5.29 ± 0.31%; in the data set with hTERT-HMEC (protein concentration 0.225 µM) it was 7.84 ± 0.53%; in the data set on MCF7 (setting [1]), 26.1 ± 1.7%; in the data set with MCF7 (protein concentration 0.225 µM) it was 27.7 ± 0.58%.

“MTTWSLRRRPARTLGLLLLVVLGFLVLRRLDWSTLVPLRLRHRQLGLQAKGWNFMLEDSTFWIFGGSIHYFRVPREYWRDRLLKMKACGLNTLTTYVPWNLHEPERGKFDFSGNLDLEAFVLMAAEIGLWVILRPGPYICSEMDLGGLPSWLLQDPGMRLRTTYKGFTEAVDLYFDHLMSRVVPLQYKRGGPIIAVQVENEYGSYNKDPAYMPYVKKALEDRGIVELLLTSDNKDGLSKGIVQGVLATINLQSTHELQLLTTFLFNVQGTQPKMVMEYWTGWFDSWGGPHNILDSSEVLKTVSAIVDAGSSINLYMFHGGTNFGFMNGAMHFHDYKSDVTSYDYDAVLTEAGDYTAKYMKLRDFFGSISGIPLPPPPDLLPKMPYEPLTPVLYLSLWDALKYLGEPIKSEKPINMENLPVNGGNGQSFGYILYETSITSSGILSGHVHDRGQVFVNTVSIGFLDYKTTKIAVPLIQGYTVLRILVENRGRVNYGENIDDQRKGLIGNLYLNDSPLKNFRIYSLDMKKSFFQRFGLDKWSSLPETPTLPAFFLGSLSISSTPCDTFLKLEGWEKGVVFINGQNLGRYWNIGPQKTLYLPGPWLSSGINQVIVFEETMAGPALQFTETPHLGRNQYIK [Q8IW92]”: the “percentage of EdU-negative” value in the data set on hTERT-HMEC (setting [2]) was 4.88 ± 0.97%; in the data set with hTERT-HMEC (setting [3]), 9.63 ± 0.41%; in the data set on MCF7 (setting [2]) it was 23.6 ± 0.28%; in the data set with MCF7 (setting [3]) it was 27.7 ± 0.33%.

Regarding “MTVARPSVPAALPLLGELPRLLLLVLLCLPAVWGDCGLPPDVPNAQPALEGRTSFPEDTVITYKCEESFVKIPGEKDSVICLKGSQWSDIEEFCNRSCEVPTRLNSASLKQPYITQNYFPVGTVVEYECRPGYRREPSLSPKLTCLQNLKWSTAVEFCKKKSCPNPGEIRNGQIDVPGGILFGATISFSCNTGYKLFGSTSSFCLISGSSVQWSDPLPECREIYCPAPPQIDNGIIQGERDHYGYRQSVTYACNKGFTMIGEHSIYCTVNNDEGEWSGPPPECRGKSLTSKVPPTVQKPTTVNVPTTEVSPTSQKTTTKTTTPNAQATRSTPVSRTTKHFHETTPNKGSGTTSGTTRLLSGHTCFTLTGLLGTLVTMGLLT”, the “percentage of EdU-negative” value with hTERT-HMEC (setting [4]) amounted to 4.51 ± 0.44%; with hTERT-HMEC (protein concentration 0.155 µM), 7.07 ± 0.42%; in the data set on MCF7 (setting [4]), 26.2 ± 1%; with MCF7 (protein concentration 0.155 µM), 26.1 ± 1.8%.

Regarding “MTVFLSFAFLAAILTHIGCSNQRRSPENSGRRYNRIQHGQCAYTFILPEHDGNCRESTTDQYNTNALQRDAPHVEPDFSSQKLQHLEHVMENYTQWLQKLENYIVENMKSEMAQIQQNAVQNHTATMLEIGTSLLSQTAEQTRKLTDVETQVLNQTSRLEIQLLENSLSTYKLEKQLLQQTNEILKIHEKNSLLEHKILEMEGKHKEELDTLKEEKENLQGLVTRQTYIIQELEKQLNRATTNNSVLQKQQLELMDTVHNLVNLCTKEGVLLKGGKREEEKPFRDCADVYQAGFNKSGIYTIYINNMPEPKKVFCNMDVNGGGWTVIQHREDGSLDFQRGWKEYKMGFGNPSGEYWLGNEFIFAITSQRQYMLRIELMDWEGNRAYSQYDRFHIGNEKQNYRLYLKGHTGTAGKQSSLILHGADFSTKDADNDNCMCKCALMLTGGWWFDACGPSNLNGMFYTAGQNHGKLNGIKWHYFKGPSYSLRSTTMMIRPLDF”, the “percentage of EdU-negative” value with hTERT-HMEC (setting [5]) came out at 4.915 ± 0.017%; in the data set with hTERT-HMEC (setting [6]) it was 8.6 ± 2%; with MCF7 (setting [5]), 25.2 ± 0.66%; in the data set on MCF7 (setting [6]), 26.4 ± 0.81%.

On to “MTVLAPAWSPTTYLLLLLLLSSGLSGTQDCSFQHSPISSDFAVKIRELSDYLLQDYPVTVASNLQDEELCGGLWRLVLAQRWMERLKTVAGSKMQGLLERVNTEIHFVTKCAFQPPPSCLRFVQTNISRLLQETSEQLVALKPWITRQNFSRCLELQCQPDSSTLPPPWSPRPLEATAPTAPQPPLLLLLLLPVGLLLLAAAWCLHWQRTRRRTPRPGEQVPPVPSPQDLLLVEH”, for which the “percentage of EdU-negative” value was 5 ± 0.57% in the data set on hTERT-HMEC (setting [1]), 5.47 ± 0.61% in the data set on hTERT-HMEC (protein concentration 0.225 µM), 25 ± 0.85% in the data set with MCF7 (setting [1]) and 25.7 ± 0.9% with MCF7 (protein concentration 0.225 µM).

“MVAALLGGGGEARGGTVPGAWLCLMALLQLLGSAPRGSGLAHGRRLICWQALLQCQGEPECSYAYNQYAEACAPVLAQHGGGDAPGAAAAAFPASAASFSSRWRCPSHCISALIQLNHTRRGPALEDCDCAQDENCKSTKRAIEPCLPRTSGGGAGGPGAGGVMGCTEARRRCDRDSRCNLALSRYLTYCGKVFNGLRCTDECRTVIEDMLAMPKAALLNDCVCDGLERPICESVKENMARLCFGAELGNGPGSSGSDGGLDDYYDEDYDDEQRTGGAGGEQPLDDDDGVPHPPRPGSGAAASGGRGDLPYGPGRRSSGGGGRLAPRGAWTPLASILLLLLGPLF”: the “percentage of EdU-negative” value stood at 4.96 ± 0.62% with hTERT-HMEC (setting [1]), 5.68 ± 0.97% in the data set with hTERT-HMEC (protein concentration 0.225 µM), 24.6 ± 0.7% with MCF7 (setting [1]) and 26.9 ± 0.34% with MCF7 (protein concentration 0.225 µM).

Values taken from the supplement of paper PMC11316812.
